Results: the Human Domainome abundance scans (Beltran et al. 2025)

B1: Retinoic acid receptor beta, residues 85 to 161; numbered along this chain, P10826 (parent)
chain: YKPCFVCQDKSSGYHYGVSACEGCKGFFRRSIQKNMIYTCHRDKNCVINKVTRNRCQYCRLQKCFEVGMSKESVRND

Variants of: B1
Assay: abundance fitness (aPCA) (normalised: wild type 0, dead -1); higher = more abundant; growth selection in yeast, the domain comes from the species named
Details: Homo sapiens

Abundance fitness, by site and new letter:
I48: A -0.531 | S -0.48 | V -0.065 | M 0.042 | N -0.376 | W -0.647 | H -0.505 | F -0.078 | C -0.72 | G -0.605 | T -0.161 | L -0.096 | P -0.417
N49: K -0.345 | Y -0.37 | Q -0.328 | A -0.284 | D 0.235 | G -0.255 | E 0.003 | L -0.218 | I -0.239 | V -0.546 | T 0.017 | W -0.327 | R -0.43 | H -0.372 | P -0.431 | C -0.598 | F -0.368 | S -0.116
T52: W -0.047 | N 0.023 | L 0.038 | H -0.397 | E 0.123 | K -0.015 | I -0.053 | S 0.032 | G -0.029 | F -0.188 | D 0.046 | C -0.451 | V -0.021 | M 0.02 | Q 0.027 | R -0.745
M36: K 0.01 | L 0.053 | V 0.072 | I -0.239 | T 0.051 | S -0.002 | A 0.132 | Q 0.089 | E 0.124 | P -0.216 | G -0.141 | N 0.009 | F -0.4 | R -0.064 | C 0.15 | H -0.025 | W -0.127
D43: L -0.066 | T 0.007 | H -0.32 | M -0.076 | R -0.024 | W -0.169 | I -0.038 | A 0.026 | G 0.012 | N -0.072 | F -0.014 | Y -0.103 | S -0.034 | Q -0.019 | C -0.436 | E 0.07 | K -0.001 | P -0.471 | V -0.103
Y38: R -0.499 | E -0.472 | F -0.187 | D -0.997 | A -0.59 | W -0.282 | N -0.28 | M -0.466 | Q -0.739 | G -0.523 | S -0.417 | P -0.26 | C -0.899 | H -0.414 | T -0.173
I37: Q 0.1 | G -0.152 | H -0.161 | D 0.048 | L -0.053 | S -0.085 | E 0.046 | K 0.13 | R -0.009 | C -0.204 | T -0.098 | V 0.032 | Y -0.345 | W -0.119 | P -0.118 | N 0.043
V47: M 0.075 | R -0.075 | W -0.048 | N -0.103 | F -0.11 | A 0.058 | P 0.043 | I -0.082 | Q 0.026 | Y 0.107 | S 0.024 | C 0.003 | L 0.03 | D 0.168 | G -0.096 | T 0.056 | H -0.077
K34: W 0.05 | Y -0.007
V51: R -0.146 | S 0.011 | M 0.166 | N -0.014 | I 0.073 | W 0.282 | P -0.218 | T 0.019 | Q 0.076 | D 0.255 | L 0.238 | C -0.249 | Y -0.003 | F 0.13 | K -0.013 | E 0.171 | A -0.115
C46: Q -1.01 | W -0.681 | K -1 | G -0.123 | F -0.988 | T -0.53 | S -0.562 | L -0.668 | I -0.711 | H -0.475 | N -0.704 | V -0.737 | P -0.94 | R -0.767 | D -0.352 | E -0.474
R53: T -0.002
